Measured values taken from patent US20140294898A1 (published 2014).

B1: Compound No. 72 (peptide)
peptide: AFXGDVFYGWYLCG
HELM: PEPTIDE1{[O=C(C[*:3])[*:2]].A.[meF].[CCCC[C@@H](C(=O)[*:2])N(C)[*:1]].[Sar].D.V.[meF].Y.[Sar].W.Y.L.C.G.[am]}$PEPTIDE1,PEPTIDE1,1:R3-14:R3$$$V2.0
SMILES: CCCC[C@H]1C(=O)N(C)CC(=O)N[C@@H](CC(=O)O)C(=O)N[C@@H](C(C)C)C(=O)N(C)[C@@H](Cc2ccccc2)C(=O)N[C@@H](Cc2ccc(O)cc2)C(=O)N(C)CC(=O)N[C@@H](Cc2c[nH]c3ccccc23)C(=O)N[C@@H](Cc2ccc(O)cc2)C(=O)N[C@@H](CC(C)C)C(=O)N[C@H](C(=O)NCC(N)=O)CSCC(=O)N[C@@H](C)C(=O)N(C)[C@@H](Cc2ccccc2)C(=O)N1C
notes: macrocyclic peptide cyclized via the ClAc moiety with the downstream cysteine; variant of Compound No. 71 (Ala at 1)
B2: Compound No. 87 (peptide)
peptide: FFXGDVFYGWYACG
HELM: PEPTIDE1{[O=C(C[*:3])[*:2]].F.[meF].[CCCC[C@@H](C(=O)[*:2])N(C)[*:1]].[Sar].D.V.[meF].Y.[Sar].W.Y.A.C.G.[am]}$PEPTIDE1,PEPTIDE1,1:R3-14:R3$$$V2.0
SMILES: CCCC[C@H]1C(=O)N(C)CC(=O)N[C@@H](CC(=O)O)C(=O)N[C@@H](C(C)C)C(=O)N(C)[C@@H](Cc2ccccc2)C(=O)N[C@@H](Cc2ccc(O)cc2)C(=O)N(C)CC(=O)N[C@@H](Cc2c[nH]c3ccccc23)C(=O)N[C@@H](Cc2ccc(O)cc2)C(=O)N[C@@H](C)C(=O)N[C@H](C(=O)NCC(N)=O)CSCC(=O)N[C@@H](Cc2ccccc2)C(=O)N(C)[C@@H](Cc2ccccc2)C(=O)N1C
notes: macrocyclic peptide cyclized via the ClAc moiety with the downstream cysteine; variant of Compound No. 71 (Ala at 12)
B3: Compound No. 80 (peptide)
peptide: FFXGDAFYGWYLCG
HELM: PEPTIDE1{[O=C(C[*:3])[*:2]].F.[meF].[CCCC[C@@H](C(=O)[*:2])N(C)[*:1]].[Sar].D.A.[meF].Y.[Sar].W.Y.L.C.G.[am]}$PEPTIDE1,PEPTIDE1,1:R3-14:R3$$$V2.0
SMILES: CCCC[C@H]1C(=O)N(C)CC(=O)N[C@@H](CC(=O)O)C(=O)N[C@@H](C)C(=O)N(C)[C@@H](Cc2ccccc2)C(=O)N[C@@H](Cc2ccc(O)cc2)C(=O)N(C)CC(=O)N[C@@H](Cc2c[nH]c3ccccc23)C(=O)N[C@@H](Cc2ccc(O)cc2)C(=O)N[C@@H](CC(C)C)C(=O)N[C@H](C(=O)NCC(N)=O)CSCC(=O)N[C@@H](Cc2ccccc2)C(=O)N(C)[C@@H](Cc2ccccc2)C(=O)N1C
notes: macrocyclic peptide cyclized via the ClAc moiety with the downstream cysteine; variant of Compound No. 71 (Ala at 6)
B4: Compound No. 77 (peptide)
peptide: FFXADVFYGWYLCG
HELM: PEPTIDE1{[O=C(C[*:3])[*:2]].F.[meF].[CCCC[C@@H](C(=O)[*:2])N(C)[*:1]].[meA].D.V.[meF].Y.[Sar].W.Y.L.C.G.[am]}$PEPTIDE1,PEPTIDE1,1:R3-14:R3$$$V2.0
SMILES: CCCC[C@H]1C(=O)N(C)[C@@H](C)C(=O)N[C@@H](CC(=O)O)C(=O)N[C@@H](C(C)C)C(=O)N(C)[C@@H](Cc2ccccc2)C(=O)N[C@@H](Cc2ccc(O)cc2)C(=O)N(C)CC(=O)N[C@@H](Cc2c[nH]c3ccccc23)C(=O)N[C@@H](Cc2ccc(O)cc2)C(=O)N[C@@H](CC(C)C)C(=O)N[C@H](C(=O)NCC(N)=O)CSCC(=O)N[C@@H](Cc2ccccc2)C(=O)N(C)[C@@H](Cc2ccccc2)C(=O)N1C
notes: macrocyclic peptide cyclized via the ClAc moiety with the downstream cysteine; variant of Compound No. 71 (mAla at 4)
B5: Compound No. 83 (peptide)
peptide: FFXGDVFAGWYLCG
HELM: PEPTIDE1{[O=C(C[*:3])[*:2]].F.[meF].[CCCC[C@@H](C(=O)[*:2])N(C)[*:1]].[Sar].D.V.[meF].A.[Sar].W.Y.L.C.G.[am]}$PEPTIDE1,PEPTIDE1,1:R3-14:R3$$$V2.0
SMILES: CCCC[C@H]1C(=O)N(C)CC(=O)N[C@@H](CC(=O)O)C(=O)N[C@@H](C(C)C)C(=O)N(C)[C@@H](Cc2ccccc2)C(=O)N[C@@H](C)C(=O)N(C)CC(=O)N[C@@H](Cc2c[nH]c3ccccc23)C(=O)N[C@@H](Cc2ccc(O)cc2)C(=O)N[C@@H](CC(C)C)C(=O)N[C@H](C(=O)NCC(N)=O)CSCC(=O)N[C@@H](Cc2ccccc2)C(=O)N(C)[C@@H](Cc2ccccc2)C(=O)N1C
notes: macrocyclic peptide cyclized via the ClAc moiety with the downstream cysteine; variant of Compound No. 71 (Ala at 8)
B6: Compound No. 86 (peptide)
peptide: FFXGDVFYGWALCG
HELM: PEPTIDE1{[O=C(C[*:3])[*:2]].F.[meF].[CCCC[C@@H](C(=O)[*:2])N(C)[*:1]].[Sar].D.V.[meF].Y.[Sar].W.A.L.C.G.[am]}$PEPTIDE1,PEPTIDE1,1:R3-14:R3$$$V2.0
SMILES: CCCC[C@H]1C(=O)N(C)CC(=O)N[C@@H](CC(=O)O)C(=O)N[C@@H](C(C)C)C(=O)N(C)[C@@H](Cc2ccccc2)C(=O)N[C@@H](Cc2ccc(O)cc2)C(=O)N(C)CC(=O)N[C@@H](Cc2c[nH]c3ccccc23)C(=O)N[C@@H](C)C(=O)N[C@@H](CC(C)C)C(=O)N[C@H](C(=O)NCC(N)=O)CSCC(=O)N[C@@H](Cc2ccccc2)C(=O)N(C)[C@@H](Cc2ccccc2)C(=O)N1C
notes: macrocyclic peptide cyclized via the ClAc moiety with the downstream cysteine; variant of Compound No. 71 (Ala at 11)
B7: Compound No. 84 (peptide)
peptide: FFXGDVFYAWYLCG
HELM: PEPTIDE1{[O=C(C[*:3])[*:2]].F.[meF].[CCCC[C@@H](C(=O)[*:2])N(C)[*:1]].[Sar].D.V.[meF].Y.[meA].W.Y.L.C.G.[am]}$PEPTIDE1,PEPTIDE1,1:R3-14:R3$$$V2.0
SMILES: CCCC[C@H]1C(=O)N(C)CC(=O)N[C@@H](CC(=O)O)C(=O)N[C@@H](C(C)C)C(=O)N(C)[C@@H](Cc2ccccc2)C(=O)N[C@@H](Cc2ccc(O)cc2)C(=O)N(C)[C@@H](C)C(=O)N[C@@H](Cc2c[nH]c3ccccc23)C(=O)N[C@@H](Cc2ccc(O)cc2)C(=O)N[C@@H](CC(C)C)C(=O)N[C@H](C(=O)NCC(N)=O)CSCC(=O)N[C@@H](Cc2ccccc2)C(=O)N(C)[C@@H](Cc2ccccc2)C(=O)N1C
notes: macrocyclic peptide cyclized via the ClAc moiety with the downstream cysteine; variant of Compound No. 71 (mAla at 9)
B8: Compound No. 85 (peptide)
peptide: FFXGDVFYGWYLCG
HELM: PEPTIDE1{[O=C(C[*:3])[*:2]].F.[meF].[CCCC[C@@H](C(=O)[*:2])N(C)[*:1]].[Sar].D.V.[meF].Y.G.W.Y.L.C.G.[am]}$PEPTIDE1,PEPTIDE1,1:R3-14:R3$$$V2.0
SMILES: CCCC[C@H]1C(=O)N(C)CC(=O)N[C@@H](CC(=O)O)C(=O)N[C@@H](C(C)C)C(=O)N(C)[C@@H](Cc2ccccc2)C(=O)N[C@@H](Cc2ccc(O)cc2)C(=O)NCC(=O)N[C@@H](Cc2c[nH]c3ccccc23)C(=O)N[C@@H](Cc2ccc(O)cc2)C(=O)N[C@@H](CC(C)C)C(=O)N[C@H](C(=O)NCC(N)=O)CSCC(=O)N[C@@H](Cc2ccccc2)C(=O)N(C)[C@@H](Cc2ccccc2)C(=O)N1C
notes: macrocyclic peptide cyclized via the ClAc moiety with the downstream cysteine; variant of Compound No. 71 (Gly instead of Sar at 9)
B9: Compound No. 71 (peptide)
peptide: FFXGDVFYGWYLCG
HELM: PEPTIDE1{[O=C(C[*:3])[*:2]].F.[meF].[CCCC[C@@H](C(=O)[*:2])N(C)[*:1]].[Sar].D.V.[meF].Y.[Sar].W.Y.L.C.G.[am]}$PEPTIDE1,PEPTIDE1,1:R3-14:R3$$$V2.0
SMILES: CCCC[C@H]1C(=O)N(C)CC(=O)N[C@@H](CC(=O)O)C(=O)N[C@@H](C(C)C)C(=O)N(C)[C@@H](Cc2ccccc2)C(=O)N[C@@H](Cc2ccc(O)cc2)C(=O)N(C)CC(=O)N[C@@H](Cc2c[nH]c3ccccc23)C(=O)N[C@@H](Cc2ccc(O)cc2)C(=O)N[C@@H](CC(C)C)C(=O)N[C@H](C(=O)NCC(N)=O)CSCC(=O)N[C@@H](Cc2ccccc2)C(=O)N(C)[C@@H](Cc2ccccc2)C(=O)N1C
notes: Macrocyclic peptide of the Formula II series; X = norleucine backbone (N-methylated)

Target: T1, hPDL1(19-239)-TVMV-His (human, UniProt Q9NZQ7 19-239)
T1 construct: The construct name says 19-239, the running text says amino acids 18-239; Expressed in HEK293T cells; also called PD-L1-His; PD-L1-TVMV-His
T1 sequence (Q9NZQ7 other isoform, or with tags, fused parts or gaps limits assumed): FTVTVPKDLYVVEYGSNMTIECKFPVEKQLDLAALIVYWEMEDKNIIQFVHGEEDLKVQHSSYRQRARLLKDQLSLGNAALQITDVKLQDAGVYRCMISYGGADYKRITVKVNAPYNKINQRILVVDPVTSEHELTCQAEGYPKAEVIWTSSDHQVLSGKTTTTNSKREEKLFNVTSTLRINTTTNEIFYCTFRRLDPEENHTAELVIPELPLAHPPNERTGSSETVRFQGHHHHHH
Experiment: HTRF competition, PD-1-Ig (20 nM) binding to human PD-L1-His (10 nM)
Experimental: All binding studies were performed in an HTRF assay buffer consisting of dPBS supplemented with 0.1% (w/v) bovine serum albumin and 0.05% (v/v) Tween-20. […] PD-L1 fusion proteins from either human, cynomologous macaques, or mouse were used. HTRF detection was achieved using europium crypate-labeled anti-Ig monoclonal antibody (1 nM final) and allophycocyanin (APC) labeled anti-His monoclonal antibody (20 nM final). Antibodies were diluted in HTRF detection buffer and 5 μl was dispensed on top of binding reaction. The reaction was allowed to equilibrate for 30 minutes and signal (665 nm/620 nm ratio) was obtained using an EnVision fluorometer. […]
HTRF experiments were performed essentially as outlined supra. Variant macrocyclic peptides were created as outlined herein.

IC50 [µM]	Binder
4.23	B1
0.025	B2
0.264	B3
0.024	B4
0.035	B5
0.82	B6
0.042	B7
0.191	B8

Target: T2, human PD-L1 (human, UniProt Q9NZQ7 19-239, limits assumed)
T2 construct: also called Hu PD-L1; hPD-L1
T2 sequence (Q9NZQ7 19-239 limits assumed): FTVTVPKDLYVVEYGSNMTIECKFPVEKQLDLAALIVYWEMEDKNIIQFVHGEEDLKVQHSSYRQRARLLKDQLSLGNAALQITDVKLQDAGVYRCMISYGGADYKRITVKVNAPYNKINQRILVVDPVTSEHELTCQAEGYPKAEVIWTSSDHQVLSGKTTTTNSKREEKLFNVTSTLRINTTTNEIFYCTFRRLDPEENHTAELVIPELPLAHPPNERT
Experiment: cell binding assay, inhibition of human PD-L1/PD-1 binding (cell format not given)

IC50 [µM]	Binder
0.01	B9
